This passage reports protein stability index results from the supplement of paper PMC10724198.

± gives the standard deviation of the averaged measurements.
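Also: PSI is a weighted mean of sequencing reads over stability bins, variants kept only with over 10 reads, mCherry proximal and sfGFP distal, peptide attached via GGGS linker.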

In this data set the test system is Saccharomyces cerevisiae. In words: protein stability index of tFT-peptide fusion (C-terminal peptide) (PSI (0-1 scale)); higher = more stable (slower turnover). Conditions: genetic background: wild type; temperature: 30 C.
The sequence LGGGVLDVRGQL gave a protein stability index of 0.711 ± 0.011.
The figure for LGGHLFPLGPRR is 0.664 ± 0.007.
The figure for LGGVKATGLGQL is 0.686 ± 0.04; for LGGVLVGDWVGI it is 0.7125 ± 0.0042; for LGGVRWNPGCRG it is 0.661 ± 0.047.
The figure for LGLGIWDCFCVL is 0.685 ± 0.018; for LGLGPKNLSYSE it is 0.676 ± 0.043.
Turning to LGLLVLARFSPL, the protein stability index was 0.7076 ± 0.0053.
To LGRGGVAWGAWW belongs 0.836 ± 0.11; to LGSIKCKLSSGI, 0.666 ± 0.052; to LGSLSPRLPSLR, 0.672 ± 0.091.
In the case of LGTGKSGLCVWE, the protein stability index worked out at 0.665 ± 0.012.
The figure for LGVCVGFRLLWV is 0.579 ± 0.026.
To LGVFNRMKHSKH belongs 0.6702 ± 0.0029; to LGVSYAPLPFLS, 0.65 ± 0.03.
The figure for LGWGRWFWGVRG is 0.653 ± 0.026.
For the sequence LGYSYHGVASRG, the protein stability index is 0.698 ± 0.013.
To LHCKRPTPLTDS belongs 0.657 ± 0.019; to LHGHFIRLIRIG, 0.477 ± 0.054.
The figure for LHLGHAGQACPA is 0.6277 ± 0.0022; for LHLPLPPLQLSL it is 0.697 ± 0.0072.
The figure for LHPGPPASPPPL is 0.7127 ± 0.0053; for LHPRCVLPHFRV it is 0.627 ± 0.032.
For LICLTIHNEGSK, the protein stability index turned out to be 0.583 ± 0.017.
The figure for LIDKPNNGVWIS is 0.587 ± 0.042.
For LIDLLRQVNVLR, the protein stability index amounted to 0.649 ± 0.0096.
To LIENVGDLETSR belongs 0.665 ± 0.059; to LIGALSDCGFLG, 0.683 ± 0.031.
In turn, LIHSSCSCPWCD gave a protein stability index of 0.666 ± 0.011.
To LIILKNKRKNKI belongs 0.704 ± 0.04; to LILFQYFYLPMT, 0.517 ± 0.044; to LIPALPPPLPPP, 0.673 ± 0.0056.
The figure for LIPCFSPLPSPF is 0.721 ± 0.018; for LIPFAFVHPVFL it is 0.62 ± 0.048; for LIQKQTGKKKKP it is 0.7279 ± 0.0051.
The figure for LIRGVVVGLDGD is 0.685 ± 0.021; for LIRIHPNGPKFM it is 0.708 ± 0.083; for LIRYVPFSYVLV it is 0.599 ± 0.007.
The sequence LISLGTYLINGF gave a protein stability index of 0.6441 ± 0.0051.
To LISLSHLSANQM belongs 0.665 ± 0.012; to LISNEGASRWDL, 0.625 ± 0.018.
To LISRQFPNHGWT belongs 0.675 ± 0.044; to LITDSQWLSSLS, 0.731 ± 0.02; to LITGRGFGFVVV, 0.674 ± 0.024.
To LIWRQEDGGPMT belongs 0.747 ± 0.01; to LKGSVGGVCHTC, 0.709 ± 0.032.
For LKKIEPRKNDKI, the protein stability index is 0.719 ± 0.025.
To LKKKSHRIKRSI belongs 0.58471 ± 0.00035; to LKMRIYEKNGKE, 0.669 ± 0.049.
To LLCIPFPTRSLI belongs 0.803 ± 0.28; to LLEGSFFCGNSS, 0.726 ± 0.037; to LLFLLGTLYHPY, 0.635 ± 0.11.
To LLFTFFFLLLFS belongs 0.527 ± 0.23; to LLFTFLPFRTVR, 0.709 ± 0.044.
LLGASIIGQFYL gave a protein stability index of 0.758 ± 0.011.
To LLGDPGDFFPAS belongs 0.713 ± 0.028; to LLGLWSFLIPPS, 0.677 ± 0.0023.
In turn, LLGRIASCKIWL returned a protein stability index of 0.657 ± 0.019.
To LLHFSSPPLLPV belongs 0.634 ± 0.055; to LLHVPIVFPRLI, 0.62 ± 0.043.
The figure for LLHWGRWSRGRR is 0.694 ± 0.071; for LLIHLKDFYCFV it is 0.855 ± 0.019.
The figure for LLLFPSSFIFFY is 0.629 ± 0.055; for LLLGSFFNKPTT it is 0.678 ± 0.035; for LLLLFWSGSCGC it is 0.648 ± 0.013.
Sequence LLLPIIPRKLDL displayed a protein stability index of 0.673 ± 0.022.
To LLLPPLPPLSLS belongs 0.7135 ± 0.0058; to LLLPPLSSSPPP, 0.7111 ± 0.0032.
The figure for LLLSPAFFSCFL is 0.638 ± 0.095; for LLMPRTKEEYDN it is 0.601 ± 0.24; for LLNLQEEADLPS it is 0.724 ± 0.035.
To LLPALPLPLSLT belongs 0.64 ± 0.013; to LLPLLYKWLGLR, 0.681 ± 0.025.
Turning to LLPLPPLLRLPL, the protein stability index was 0.5803 ± 0.001.
LLPLPPPPLFLP gave a protein stability index of 0.705 ± 0.011.
To LLPPFPPSSPAF belongs 0.708 ± 0.036; to LLPPLPLSPSAP, 0.685 ± 0.096; to LLPPPPPPTLYP, 0.699 ± 0.016.
The figure for LLPPPPSPPTPS is 0.686 ± 0.035.
The figure for LLPSPSPASSPS is 0.74 ± 0.1; for LLPSSPRTFPLL it is 0.6731 ± 0.0008.
With LLPVFFPCFPLP, the protein stability index was determined as 0.696 ± 0.069.
To LLRFVGVRVRGA belongs 0.646 ± 0.094; to LLRLMSPTPFTP, 0.703 ± 0.037.
The figure for LLRLPPPSPRYH is 0.782 ± 0.019; for LLRPLRRLDVSW it is 0.632 ± 0.0065.
The figure for LLRPPARPPHPR is 0.746 ± 0.008; for LLRVYNQNGERN it is 0.734 ± 0.044.
On to LLRWEPNYTENL, for which the protein stability index was found to be 0.796 ± 0.028.
LLRYAPSALPLP had a protein stability index of 0.6683 ± 0.0031.
To LLSAPFRSFFTL belongs 0.5548 ± 0.0046; to LLSAVVDHTHLQ, 0.664 ± 0.07.
Regarding LLSCVRSHPDAP, the protein stability index came out at 0.702 ± 0.073.
The figure for LLSLATPHPSAL is 0.714 ± 0.045.
To LLSLMCYCWFGV belongs 0.5088 ± 0.0011.
The figure for LLSPDAALGRLF is 0.692 ± 0.025; for LLSPFLPPPLFV it is 0.563 ± 0.019.
On to LLSPPPTPFPLP, for which the protein stability index was 0.666 ± 0.061.
As for LLSRCAGLMWSF, the protein stability index was determined as 0.679 ± 0.0098.
The figure for LLSRQEWMTGRS is 0.673 ± 0.031; for LLTWENWVVPRL it is 0.738 ± 0.053.
The figure for LLVLFRWSGIPG is 0.552 ± 0.034; for LLVLGHVCAANF it is 0.601 ± 0.0094.
The figure for LLVMRGMRGCGT is 0.681 ± 0.056; for LLVMRRHRFLRL it is 0.624 ± 0.051.
Sequence LLVNLNINYFKR gave a protein stability index of 0.689 ± 0.018.
The figure for LLWCPLRSIGLS is 0.696 ± 0.044; for LLWPSPAISLPT it is 0.722 ± 0.021; for LMAGPRLCSPLR it is 0.634 ± 0.033.
The figure for LMCGPARSPLTT is 0.6701 ± 0.00098; for LMFPLPLRSFPF it is 0.6931 ± 0.0014.
To LNHQSSVHLNTP belongs 0.732 ± 0.034.
LNTTKTFCSPCL had a protein stability index of 0.692 ± 0.081.
To LPACVVVRYCRF belongs 0.637 ± 0.12; to LPAPLHPPPSQP, 0.638 ± 0.014; to LPAPPAPLTFPG, 0.687 ± 0.021.
